Results from publication PMC4340967, “Histidine 352 (His^352) and Tryptophan 355 (Trp^355) Are Essential for Flax UGT74S1 Glucosylation Activity toward Secoisolariciresinol” (PLoS ONE, 2015).
Substitutions are numbered along the chain they refer to. In names and notes the source's numbering stands.

B1: UGT74S1 (wild type, W) (Linum usitatissimum) (protein)
chain: MAGDEREKAHCLVVPAAAQGHFTPLLQFSKRLIPKRIRVTLALTRFIHSTMTVTAQSGIHIDTISDGFDHSGLILQDPEHYSQTFRRVGSETLTDLIRKQSESRHPVHCIIYDASMPWFLDVAKRFGIVGAAFLTQSCAVNAIYYHLREGTIKRPVVSDPAAGTLVIDGLPPLEVSDLPSFIWDDLHTEFLAAHLRQFSNDGADWVFCNTVYQLELEAVDWLTKQWLINFRTIGPTIPSFYLDKQIPDDKDYDISIFNPQNQTCMNWLQSKPDGSVVYVSFGSLARLSPQQTEELYFGLKNSNHYFLWVVRESEVAKLPKEEYLSGEKGLVVSWCSQLQVLASGKVGCFVTHCGWNSTLEALSLGVPMVAMPECGDQLTNAKFIKDVWKTGVRAEADDGKGIMWGMIKREVIERCIREVMEGEETRRNADKWGKIIKEAVVEGGSSDKNTEDFATSLINFAETFQFSC
B2: UGT74S1 (wild type, W) (Linum usitatissimum; Q337A) (protein)
chain: B1 chain with Q337A
B3: UGT74S1 (wild type, W) (Linum usitatissimum; C335A) (protein)
chain: B1 chain with C335A

What follows are proteins tested on COc1cc(C[C@@H](CO)[C@H](CO)Cc2ccc(O)c(OC)c2)ccc1O (assay: UPLC-MS assay of SMG formation, Lineweaver-Burk). Conditions: 70-1650 µM SECO, 1.64 mM UDP-glucose fixed, 1 mM NaCl, pH 8.0, 30°C, for SMG production.
Type: biochemical, Linum usitatissimum
Description: (§1) UPLC-MS assay of SMG formation, Lineweaver-Burk on UGT74S1 (wild type, W)
B1 gave a Km of 717 µM, a kcat of 0.23 s⁻¹ and a kcat/Km of 321 M⁻¹ s⁻¹. Work on B2 yielded a Km of 2716 µM, a kcat of 0.0077 s⁻¹ and a kcat/Km of 2.85 M⁻¹ s⁻¹. B3 was tested, and the Km was 1538 µM, the kcat was 0.0494 s⁻¹ and the kcat/Km was 32.1 M⁻¹ s⁻¹.

What follows are proteins tested on O=c1ccn([C@@H]2O[C@H](CO[P@@](=O)(O)O[P@@](=O)(O)O[C@H]3O[C@H](CO)[C@@H](O)[C@H](O)[C@H]3O)[C@@H](O)[C@H]2O)c(=O)[nH]1 (assay: UPLC-MS assay of SMG formation, Lineweaver-Burk). Conditions: 0.82-8.2 mM UDP-glucose, 280 µM SECO fixed, 1 mM NaCl, pH 8.0, 30°C, for SMG production.
Type: biochemical, Linum usitatissimum
Description: as §1
With B1 the Km was 1103 µM, the kcat was 0.135 s⁻¹ and the kcat/Km was 122 M⁻¹ s⁻¹. With B2 the Km was 27610 µM, the kcat was 0.547 s⁻¹ and the kcat/Km was 19.8 M⁻¹ s⁻¹. B3 showed a Km of 3443 µM, a kcat of 0.256 s⁻¹ and a kcat/Km of 74.3 M⁻¹ s⁻¹.
